Among the data in paper PMC9118860 are 12xCSL-Luc luciferase reporter (RLU) in HEK293T cells, 48 h after blue light activation (0.05-s pulses for 1, 3 and 12 h), against LOV2^WT values, retold here.

The experiment has as its target MTS-LOV2^V416L (membrane-anchored Light-oxygen-voltage-sensing domain 2, V416L variant).

As for “Zdk1-N1ICD (Zdark 1 fused to the human NOTCH1 intracellular domain) (designed binder)”, the 12xCSL-Luc luciferase reporter (RLU) in HEK293T cells, 48 h after blue light activation (0.05-s pulses for 1, 3 and 12 h), against LOV2^WT turned out to be 5 fold.
